Among the data in the Immune Epitope Database (IEDB) are IC50 and Kd values, retold here.

What is called IC50 is the midpoint of a concentration-inhibition curve. A low value points to greater potency in that assay. A word on the Kd: it is the concentration at which binding is half-saturated.

One experiment has as its target HLA-B*15:01. Description: IEDB peptide-MHC binding, purified MHC/competitive/fluorescence; ≥ and ≤ were set here for values at or beyond the usual limits of such assays.
The next experiment deals with HLA-A*24:02. The description is as above. Particulars: source organism: Variola virus.
In a further experiment the target is HLA-A*11:01. Described as above.
Experiment [1] deals with HLA-A*03:01. Described as above.
For another experiment, the target named is HLA-A*02:03. The experiment in a line: IEDB peptide-MHC binding, purified MHC/competitive/radioactivity; filed as Kd, often an IC50 or EC50 that approximates it; ≥ and ≤ were set here for values at or beyond the usual limits of such assays.
The next experiment addresses HLA-A*02:17. The experiment is described as above.
Experiment [2] deals with HLA-A*02:01. The experiment is described as above.
Experiment [3] addresses HLA-A*03:01. Description: IEDB peptide-MHC binding, purified MHC/competitive/fluorescence; filed as Kd, often an IC50 or EC50 that approximates it; ≥ and ≤ were set here for values at or beyond the usual limits of such assays.
A further experiment deals with HLA-A*68:02. Description: IEDB peptide-MHC binding, purified MHC/competitive/radioactivity; filed as Kd, often an IC50 or EC50 that approximates it; ≥ and ≤ were set here for values at or beyond the usual limits of such assays.
The next experiment addresses HLA-A*02:02. The experiment is described as above. Particulars: source organism: Trypanosoma cruzi.
Another experiment deals with HLA-A*02:06. The description is as above.
Experiment [4] deals with HLA-A*02:01. The experiment in a line: IEDB peptide-MHC binding, purified MHC/competitive/fluorescence; ≥ and ≤ were set here for values at or beyond the usual limits of such assays.
The target in another experiment is HLA-A*69:01. The experiment in a line: IEDB peptide-MHC binding, purified MHC/direct/fluorescence; filed as Kd, often an IC50 or EC50 that approximates it; ≥ and ≤ were set here for values at or beyond the usual limits of such assays. Particulars: source organism: dengue virus type 3.
A further experiment has as its target HLA-A*26:01. The experiment in a line: IEDB peptide-MHC binding, purified MHC/competitive/fluorescence; filed as Kd, often an IC50 or EC50 that approximates it; ≥ and ≤ were set here for values at or beyond the usual limits of such assays. Particulars: source organism: Reston ebolavirus - Reston (1989).
In a further experiment the target is HLA-B*57:01. The experiment is described as above. To be noted: source organism: Reston ebolavirus - Reston (1989).
The next experiment has as its target HLA-B*18:01. The description is as above. Particulars: source organism: Reston ebolavirus - Reston (1989).
A further experiment addresses HLA-B*39:01. Described as above. To be noted: source organism: Reston ebolavirus - Reston (1989).
Another experiment concerns the target HLA-B*46:01. The description is as above. To be noted: source organism: Reston ebolavirus - Reston (1989).
In a further experiment the target is HLA-B*51:01. The description is as above. To be noted: source organism: Reston ebolavirus - Reston (1989).
The target of the next experiment is HLA-B*27:03. Described as above. To be noted: source organism: Reston ebolavirus - Reston (1989).
In experiment [5] the target is HLA-A*02:01. The experiment in a line: IEDB peptide-MHC binding, purified MHC/direct/fluorescence; filed as Kd, often an IC50 or EC50 that approximates it; ≥ and ≤ were set here for values at or beyond the usual limits of such assays. To be noted: source organism: Reston ebolavirus - Reston.
Where [6] appears, read: source organism: Zaire ebolavirus.
The mark [7] stands for this setting: source organism: Dengue virus 3 Sri Lanka/1266/2000.
Where [8] appears, read: source organism: Trypanosoma cruzi.
[9] abbreviates: source organism: Dengue virus 4 Philippines/H241/1956.
The mark [10] stands for this setting: source organism: Vaccinia virus Copenhagen.
The mark [11] stands for this setting: source organism: Dengue virus 1 Brazil/97-11/1997.
The mark [12] stands for this setting: source organism: Dengue virus 1 Singapore/S275/1990.
Where [13] appears, read: source organism: Dengue virus 2 Jamaica/1409/1983.
Setting [14] is: source organism: Dengue virus 3 Martinique/1243/1999.
Where [15] appears, read: source organism: Vaccinia virus.

For AQREIFSAW, the IC50 with HLA-B*15:01 (source organism: Variola virus) worked out at 6.52 µM; in the experiment with HLA-A*24:02, 38.6 nM.
In the case of CAGDFAFHK, the IC50 in the experiment with HLA-A*11:01 (setting [6]) amounted to 1390 nM; with HLA-A*03:01 [1] (setting [6]), 63.9 µM.
As for CLMMILPAAL, the Kd was 39 nM with HLA-A*02:03 (setting [7]), 0.17 µM with HLA-A*02:17 (setting [7]) and 15.4 nM with HLA-A*02:01 [2] (setting [7]).
Sequence CLRIPMTDH registered a Kd with HLA-A*03:01 [3] (source organism: Listeria monocytogenes EGD-e) of no less than 20000 nM.
With DLYEEEMREL, the Kd in the experiment with HLA-A*68:02 (source organism: Homo sapiens) was determined as 13.5 µM.
Regarding FLHKRFTLV, the Kd in the experiment with HLA-A*02:03 (setting [8]) came out at 0.116 nM; with HLA-A*68:02 (setting [8]) it was 1.31 µM; in the experiment with HLA-A*02:02, 0.256 nM; with HLA-A*02:01 [2] (setting [8]) it was 0.614 nM; with HLA-A*02:06 (setting [8]) it was 1.37 nM.
As for FLMVLLIPEP, the equilibrium dissociation constant (Kd) was no less than 44.7 µM in the experiment with HLA-A*02:17 (setting [9]) and 31.4 nM in the experiment with HLA-A*02:01 [2] (setting [9]).
GAMVEYVSA: the figures for the IC50 with HLA-B*15:01 (setting [10]) and with HLA-A*02:01 [4] (setting [10]) were 25.5 µM and 33.4 µM, respectively.
In the experiment with HLA-A*03:01 [3] (source organism: Escherichia coli 536), GISRNTVKR came in with a Kd of no less than 20000 nM.
For GMFRTVGQL, the Kd in the experiment with HLA-A*68:02 (source organism: Homo sapiens) is no less than 60 µM.
Regarding IIFILLMLV, the Kd with HLA-A*02:03 (setting [11]) was found to be 217 nM; in the experiment with HLA-A*02:17 (setting [12]), 0.328 µM; with HLA-A*02:01 [2] (setting [12]) it was 43.7 nM; with HLA-A*02:06 (setting [11]), 1170 nM.
In the case of ILIGVIITWI, the Kd was 17.6 µM with HLA-A*02:17 (setting [13]) and 91.5 nM with HLA-A*02:01 [2] (setting [13]).
For the sequence ILTDGPERV, the figures for the Kd in the experiment with HLA-A*02:03 (setting [14]), with HLA-A*02:17 (source organism: Dengue virus 3 China/80-2/1980) and in the experiment with HLA-A*69:01 were 130 nM, 8.97 µM and no less than 20 µM, respectively.
As for KAALSSLAK, the IC50 is no less than 110 µM in the experiment with HLA-B*15:01 (setting [6]), 483 nM with HLA-A*11:01 (setting [6]) and 5.42 µM with HLA-A*03:01 [1] (setting [6]).
Consider KLSLTKLFS, for which the IC50 in the experiment with HLA-A*02:01 [4] (source organism: Variola virus) came to 2.94 µM; with HLA-A*03:01 [1] (source organism: Variola virus) it was 33.6 µM.
For the sequence KLSYRNKPS, the values for the IC50 with HLA-A*02:01 [4] (setting [15]) and in the experiment with HLA-A*03:01 [1] (setting [15]) were no less than 196 µM and no less than 282 µM, respectively.
The sequence KMARAGLGK came in with a Kd with HLA-A*03:01 [3] (source organism: Burkholderia vietnamiensis G4) of 20.2 nM.
Consider KVHAVLTEK, for which, in the experiment with HLA-A*03:01 [3] (source organism: Vibrio parahaemolyticus K5030), the Kd turned out to be 20.6 nM.
On to LAIPPTAGV, for which the Kd with HLA-A*68:02 (setting [14]) came out at 0.00316 µM.
LFGIKCIKK: the IC50 in the experiment with HLA-A*11:01 (setting [15]) turned out to be 8170 nM; with HLA-A*03:01 [1] (setting [15]), 31.7 µM.
For LIMEFNSLL, the dissociation constant Kd in the experiment with HLA-A*26:01, with HLA-B*57:01, with HLA-B*18:01, in the experiment with HLA-B*39:01, in the experiment with HLA-B*46:01 and in the experiment with HLA-B*51:01 was no less than 20 µM in each case. Also, the Kd is no less than 20 µM with HLA-B*27:03 and 5.2 nM with HLA-A*02:01 [5].
Regarding LLGLWGFAAL, the Kd with HLA-A*02:03 (setting [8]) is 36 nM; with HLA-A*68:02 (setting [8]), no less than 125 µM; with HLA-A*02:02 it was 28.2 nM; with HLA-A*02:01 [2] (setting [8]), 222 nM; with HLA-A*02:06 (setting [8]) it was 466 nM.
On to LLILCVTQV, for which the Kd came to 7.56 nM with HLA-A*02:03 (setting [13]), 5.97 µM with HLA-A*02:17 (setting [13]) and 27.2 nM in the experiment with HLA-A*02:01 [2] (setting [13]).
